Values joined by “and” are separate entries in the source; they are usually repeats but may differ in a detail not shown here. Equal values may be shown once.
How the values were obtained:
[1] = biological target: T1, recombinant cynomolgus monkey PD-L1 expressed with a C-terminal mouse IgG2a Fc tag (cynomolgus monkey); experiment: SPR (Biacore), mAb captured, 37C
T1 construct: also called MfPD-L1-mFc; monkey PD-L1-mFc
Procedure: (§1) Binding association and dissociation rate constants (kₐ and kd, respectively), equilibrium dissociation constants and dissociation half-lives (KD and t_{1/2}, respectively) of antigen binding to purified anti-PD-L1 monoclonal antibodies were determined using a real-time surface plasmon resonance biosensor assay on a Biacore 4000 instrument. The Biacore sensor surface was either derivatized with polyclonal rabbit anti-mouse antibody (GE, #BR-1008-38) or with monoclonal mouse anti-human Fc antibody (GE, #BR-1008-39) to capture approximately 200-300 RUs of anti-PD-L1 monoclonal antibodies, expressed with either a mouse Fc or with human Fc, respectively. […] Different concentrations of PD-L1 reagents were injected over the anti-PD-L1 monoclonal antibody captured surface at a flow rate of 30 μL/min. The binding of the PD-L1 reagents to the captured monoclonal antibodies was monitored for 3 to 4 minutes while the dissociation of antibody bound PD-L1 reagents was monitored for 10 minutes in HBST running buffer (0.01 M HEPES pH 7.4, 0.15 M NaCl, 3 mM EDTA, 0.05% v/v Surfactant tween-20). Experiments were performed at either 25° C. or 37° C. Kinetic association (kₐ) and dissociation (kd) rate constants were determined by processing and fitting the data to a 1:1 binding model using Scrubber 2.0c curve fitting software. Binding dissociation equilibrium constants (KD) and dissociative half-lives (t_{1/2}) were then calculated from the kinetic rate constants as: KD (M)=kd/kₐ and t_{1/2} (min)=[In2/(60*kd)].

[2] = biological target: full length human PD-L1 (amino acids 1 to 290 of NP_054862.1) on transfected cells (human, UniProt Q9NZQ7 19-290); experiment: cell-based or functional assay
Chain of full length human PD-L1 (amino acids 1 to 290 of NP_054862.1) on transfected cells (Q9NZQ7 19-290 limits assumed): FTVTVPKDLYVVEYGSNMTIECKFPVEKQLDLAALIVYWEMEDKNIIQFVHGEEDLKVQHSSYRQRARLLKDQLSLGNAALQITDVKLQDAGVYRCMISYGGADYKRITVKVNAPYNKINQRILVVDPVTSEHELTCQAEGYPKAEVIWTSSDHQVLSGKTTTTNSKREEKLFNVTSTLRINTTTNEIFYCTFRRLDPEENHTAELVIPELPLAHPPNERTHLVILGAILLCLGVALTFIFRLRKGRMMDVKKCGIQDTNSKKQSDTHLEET

[3] = biological target: T2, recombinant cynomolgus monkey PD-L1 with a C-terminal myc-myc-hexahistidine tag (cynomolgus monkey (Macaca fascicularis)); experiment: SPR (Biacore), mAb captured, 37C
T2 construct: also called MfPD-L1-MMH; MfPD-L1-MMH Monomer
T2 sequence (chain, as listed by the source limits assumed): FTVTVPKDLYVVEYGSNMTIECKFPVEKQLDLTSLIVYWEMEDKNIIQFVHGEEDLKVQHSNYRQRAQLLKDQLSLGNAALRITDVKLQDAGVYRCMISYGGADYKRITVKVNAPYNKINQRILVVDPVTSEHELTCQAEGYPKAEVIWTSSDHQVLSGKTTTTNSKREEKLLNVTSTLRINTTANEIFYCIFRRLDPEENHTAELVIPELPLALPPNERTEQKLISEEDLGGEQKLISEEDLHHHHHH
Procedure: as §1

[4] = biological target: T3, recombinant human PD-L1 (amino acids 19-239 of NP_054862.1) with a C-terminal myc-myc-hexahistidine tag (human); experiment: SPR (Biacore), mAb captured, 37C
T3 construct: also called hPD-L1-MMH; hPD-L1-MMH Monomer
T3 sequence (chain, as listed by the source limits assumed): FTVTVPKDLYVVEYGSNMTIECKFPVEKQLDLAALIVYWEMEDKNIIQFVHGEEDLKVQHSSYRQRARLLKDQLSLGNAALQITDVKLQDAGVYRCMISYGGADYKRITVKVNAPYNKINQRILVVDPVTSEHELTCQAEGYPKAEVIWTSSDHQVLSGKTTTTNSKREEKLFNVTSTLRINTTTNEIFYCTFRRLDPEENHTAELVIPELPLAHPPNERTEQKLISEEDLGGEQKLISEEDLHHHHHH
Procedure: as §1

Human PD-L1 Dimer [5] = biological target: T4, Human PD-L1 Dimer (human, UniProt Q9NZQ7 19-239); experiment: SPR (Biacore), mAb captured, 37C
T4 construct: also called hPD-L1 dimer; hPD-L1-hFc
T4 sequence (Q9NZQ7 19-239): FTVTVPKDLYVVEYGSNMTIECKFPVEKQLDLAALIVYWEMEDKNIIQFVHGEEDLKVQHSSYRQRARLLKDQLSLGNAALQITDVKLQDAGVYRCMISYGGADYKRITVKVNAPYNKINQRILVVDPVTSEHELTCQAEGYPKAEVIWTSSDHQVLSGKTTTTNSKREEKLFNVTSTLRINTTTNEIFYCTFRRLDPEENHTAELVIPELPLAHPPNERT
Procedure: as §1

[6] = biological target: T2, recombinant cynomolgus monkey PD-L1 …; experiment: SPR (Biacore), mAb captured, 25C
Procedure: as §1

[7] = biological target: T5, recombinant cynomolgus monkey PD-L1 with a C-terminal mouse IgG2a Fc tag (cynomolgus monkey (Macaca fascicularis)); experiment: SPR (Biacore), mAb captured, 25C
T5 construct: also called MfPD-L1-mFc; monkey PD-L1-mFc
T5 sequence (chain, as listed by the source limits assumed): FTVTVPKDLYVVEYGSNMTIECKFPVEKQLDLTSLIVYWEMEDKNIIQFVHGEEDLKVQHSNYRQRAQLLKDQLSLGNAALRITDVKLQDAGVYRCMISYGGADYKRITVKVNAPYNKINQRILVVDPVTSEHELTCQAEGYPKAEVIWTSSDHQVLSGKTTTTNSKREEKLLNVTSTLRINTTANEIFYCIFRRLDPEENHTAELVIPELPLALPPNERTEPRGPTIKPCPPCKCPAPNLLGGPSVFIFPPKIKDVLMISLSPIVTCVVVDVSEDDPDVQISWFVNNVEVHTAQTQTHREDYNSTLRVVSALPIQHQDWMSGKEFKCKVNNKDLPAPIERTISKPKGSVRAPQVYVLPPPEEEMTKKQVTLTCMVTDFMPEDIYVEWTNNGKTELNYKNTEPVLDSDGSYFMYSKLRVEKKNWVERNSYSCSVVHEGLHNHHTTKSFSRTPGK
Procedure: as §1

Human PD-L1 Dimer [8] = biological target: T4, Human PD-L1 Dimer; experiment: SPR (Biacore), mAb captured, 25C
Procedure: as §1

Binder | Kd [3] [nM] | koff [3] [s⁻¹] | kon [3] [M⁻¹ s⁻¹] | t1/2 [3] [min] | Kd [4] [nM] | koff [4] [s⁻¹] | kon [4] [M⁻¹ s⁻¹] | t1/2 [4] [min] | Kd (Human PD-L1 Dimer [5]) [nM] | koff (Human PD-L1 Dimer [5]) [s⁻¹] | kon (Human PD-L1 Dimer [5]) [M⁻¹ s⁻¹] | t1/2 (Human PD-L1 Dimer [5]) [min] | Kd [6] [nM] | koff [6] [s⁻¹] | kon [6] [M⁻¹ s⁻¹] | t1/2 [6] [min] | Kd [7] | koff [7] | kon [7] | t1/2 [7] | other results
H1H8314N (antibody, V domains shown, human IgG1 Fc form (H1H prefix) of numerical identifier 8314) VH: EVQLVESGGGVVRPGGSLRLSCAASGFTFDDYGMTWVRQAPGRGLEWVSGIHWHGKRTGYADSVKGRFTISRDNAKKSLYLQMNSLKGEDTALYHCVRGGMSTGDWFDPWGQGTLVIVSS VL: DIQMTQSPSSLSASLGDRVTITCRASQSINSYLNWYQQKPGKAPKLLIYVASSLQSGVPSRFSGSGSGTEFTLTISNLQPEDFATYYCQQSYSTPPITFGQGTRLEIK |  |  |  |  |  |  |  |  |  |  |  |  |  |  |  |  |  |  |  |  | Kd [1]: 0.0333 nM; koff [1]: 9.6e-05 s⁻¹; kon [1]: 2.89e+06 M⁻¹ s⁻¹; t1/2 [1]: 120 min; Concentration [M] of Antibody at 125% activation [2]: 6.57e-11 M; Emax mean [%] @ 100 nM [2]: 148%
H1H8323N (antibody, V domains shown, human IgG1 Fc form (H1H prefix) of numerical identifier 8323) VH: QVQLVQSGAEVKMPGSSVRVSCKASGGIFSSSTISWVRQAPGQGLEWMGEIIPVFGTVNYAQKFQDRVIFTADESTTTAYMELSSLKSGDTAVYFCARNWGLGSFYIWGQGTMVTVSS VL: EIVLTQSPGTLSLSPGERATLSCRASQSFNFNYLAWYQQKPGQAPRLLIYGASSRATGIPDRFSGSGSGTDFTLTINRLEPEDFGVFYCQQYESAPWTFGQGTKVEIK |  |  |  |  |  |  |  |  |  |  |  |  |  |  |  |  |  |  |  |  | Kd [1]: 0.0451 nM; koff [1]: 0.000135 s⁻¹; kon [1]: 2.99e+06 M⁻¹ s⁻¹; t1/2 [1]: 86 min
H1H9336P (antibody, human IgG1, V domains shown) VH: EVQLVESGGGLVQPGRSLRLSCAASGFTFDDFAMHWVRQAPGKGLEWVSGISWTGGNMDYANSVKGRFTISREDAKNSLYLQMNSLRAADTALYYCVKDIRGIVATGGAFDIWGRGTMVTVSS VL: DIQMTQSPSSLSASVGDRVTISCRASQTISTYLNWFQQKPGKAPKLLIYVVSSLQSGVPSRFSGSGSGTDFTLTISSLQPEDFATYYCQQSYSTPFTFGPGTKVDIK | 1.38 | 0.00125 | 909000 | 9.2 | 0.733 | 0.000788 | 1.07e+06 | 15 | 0.0302 | 8.31e-05 | 2.75e+06 | 139 | 0.876 | 0.000594 | 679000 | 19 | 0.0622 nM | 6.16e-05 s⁻¹ | 990000 M⁻¹ s⁻¹ | 188 min | Kd (Human PD-L1 Dimer [8]): 0.0786 nM; koff (Human PD-L1 Dimer [8]): 0.000109 s⁻¹; kon (Human PD-L1 Dimer [8]): 1.38e+06 M⁻¹ s⁻¹; t1/2 (Human PD-L1 Dimer [8]): 106 min
H1H9382P2 (antibody, human IgG1, V domains shown) VH: EVQLVESGGGLVQPGGSLRLSCAASGFTVGTNFMNWVRQAPGKGLEWVSAIYSGGTANYADSVKGRFTISRDTSRNTLYLQMNSLRTEDTAVYYCARGGGMDVWGQGTTVTVSS VL: not shown | 189 | 0.0245 | 130000 | 0.5 | 107 | 0.0107 | 99700 | 1.1 | 0.278 | 0.000137 | 492000 | 84 | 157 | 0.0129 | 82200 | 0.9 | 0.626 nM | 0.000133 s⁻¹ | 213000 M⁻¹ s⁻¹ | 87 min | Kd (Human PD-L1 Dimer [8]): 0.663 nM; koff (Human PD-L1 Dimer [8]): 0.000148 s⁻¹; kon (Human PD-L1 Dimer [8]): 223000 M⁻¹ s⁻¹; t1/2 (Human PD-L1 Dimer [8]): 78 min
H1H9364P2 (antibody, human IgG1, V domains shown) VH: EVQLVESGGGLVQPGRSLRLSCAASGFTFDDYALHWVRQAPGKGLEWVSGISWTGGTIDYADSVKGRFTISRDNAKNSLYLQMSSLRTEDTAIYYCTRDIRGNWKYGGWFDPWGQGTLVTVSS VL: not shown | 0.566 | 0.000633 | 1.12e+06 | 18 | 0.417 | 0.000563 | 1.35e+06 | 21 | 0.0208 | 6.96e-05 | 3.34e+06 | 166 | 0.412 | 0.000312 | 757000 | 37 | 0.0587 nM and 0.0462 nM | 7.75e-05 s⁻¹ and 5.8e-05 s⁻¹ | 1.32e+06 M⁻¹ s⁻¹ and 1.25e+06 M⁻¹ s⁻¹ | 149 min and 199 min | Kd (Human PD-L1 Dimer [8]): 0.0437 nM; koff (Human PD-L1 Dimer [8]): 0.000106 s⁻¹; kon (Human PD-L1 Dimer [8]): 2.42e+06 M⁻¹ s⁻¹; t1/2 (Human PD-L1 Dimer [8]): 109 min
H1H9387P2 (antibody, human IgG1, V domains shown) VH: QVQLVQSGAEVKKPGSSVKVSCKASGGTFNTYVLSWVRQAPGQGLEWMGEIIPILGAANYAQNFQGRVTFTTDESTNTAYMDLSSLRSEDTAVYYCARDRTSGGFDPWGQGTLVTVSS VL: not shown | 48.9 | 0.157 | 3.2e+06 | 0.07 | 39.1 | 0.137 | 3.49e+06 | 0.08 | 0.0639 | 0.000392 | 6.12e+06 | 29 | 25.5 | 0.0604 | 2.37e+06 | 0.2 | 0.0452 nM and 0.073 nM | 0.000161 s⁻¹ and 0.000212 s⁻¹ | 3.55e+06 M⁻¹ s⁻¹ and 2.9e+06 M⁻¹ s⁻¹ | 72 min and 55 min | Kd (Human PD-L1 Dimer [8]): 0.0427 nM; koff (Human PD-L1 Dimer [8]): 0.000217 s⁻¹; kon (Human PD-L1 Dimer [8]): 5.07e+06 M⁻¹ s⁻¹; t1/2 (Human PD-L1 Dimer [8]): 53 min
H1H9396P2 (antibody, human IgG1, V domains shown) VH: QVQLVQSGAEVEKPGASVKVSCKASGYIFTHYGISWVRQAPGQGLEWVGWISPYNGYTDYAQKLQGRVTLTTDTSTTTAYMELRNLRSDDTAMYYCSRGRGPYWSFDLWGRGTLVTVSS VL: not shown | 30.5 | 0.012 | 394000 | 1 | 33 | 0.0113 | 344000 | 1 | 0.237 | 0.000258 | 1.09e+06 | 45 | 12.2 | 0.00252 | 206000 | 4.6 | 0.225 nM | 0.000188 s⁻¹ | 837000 M⁻¹ s⁻¹ | 61 min | Kd (Human PD-L1 Dimer [8]): 0.245 nM; koff (Human PD-L1 Dimer [8]): 0.00019 s⁻¹; kon (Human PD-L1 Dimer [8]): 776000 M⁻¹ s⁻¹; t1/2 (Human PD-L1 Dimer [8]): 61 min
H1H9345P2 (antibody, human IgG1, V domains shown) VH: EVQLVESGGGLVQPGGSLRLSCAASGFTISTNYMNWVRQAPGKGLEWVAVIYSSGSTYYIDSVKGRFTISRLTSKNTVYLQMSSLNSEDTAVYYCARGIRGFDIWGQGTMVTVSS VL: not shown | 121 | 0.0197 | 164000 | 0.6 | 197 | 0.034 | 172000 | 0.3 | 0.297 | 0.000203 | 682000 | 57 | 77.3 | 0.0085 | 110000 | 1.4 | 0.512 nM | 0.000151 s⁻¹ | 296000 M⁻¹ s⁻¹ | 76 min | Kd (Human PD-L1 Dimer [8]): 0.474 nM; koff (Human PD-L1 Dimer [8]): 0.000237 s⁻¹; kon (Human PD-L1 Dimer [8]): 500000 M⁻¹ s⁻¹; t1/2 (Human PD-L1 Dimer [8]): 49 min
H1H9354P2 (antibody, human IgG1, V domains shown) VH: EVQLVESGGGLVQPGGSLRLSCEASGFTVGVNHMNWVRQAPGKGLEWVSVIFSSGRTFYGDYVKGRLTIFRQTSQNTVYLQMNSLRSEDTAIYYCARGIGGLDIWGRGTMVTVSS VL: not shown | 9.82 | 0.000844 | 85900 | 14 | 15.4 | 0.00114 | 73900 | 10 | 0.317 | 0.000145 | 456000 | 80 | 6.64 | 0.000305 | 46000 | 38 | 0.447 nM | 9.14e-05 s⁻¹ | 205000 M⁻¹ s⁻¹ | 126 min | Kd (Human PD-L1 Dimer [8]): 0.689 nM; koff (Human PD-L1 Dimer [8]): 0.000116 s⁻¹; kon (Human PD-L1 Dimer [8]): 168000 M⁻¹ s⁻¹; t1/2 (Human PD-L1 Dimer [8]): 100 min

Source: patent publication US20210380702A1 (Regeneron, published 2021)
